The subject of one data set is T1, MddM1.
T1 construct: full length (210 aa, ~23 kDa native), GST-tagged in pGEX-4T-1, expressed in E. coli BL21(DE3), glutathione Sepharose purified; no tag removal told
The data set is described as follows: GC detection of DMS, Michaelis-Menten fit. In kind it is biochemical, Mycolicibacterium poriferae. Conditions: pH 9, 40 °C.

Substrate in the data set “purified protein”: C[S+](CC[C@H](N)C(=O)O)C[C@H]1O[C@@H](n2cnc3c(N)ncnc32)[C@H](O)[C@@H]1O
The data set is described as follows: purified protein. The conditions noted are these: pH 8, 30 °C, MeSH as co-substrate fixed at 1 mM, methyl donor.

Substrate in data set [1]: CS
The data set is described as follows: GC detection of DMS, Michaelis-Menten fit. It counts as biochemical, Thermobispora bispora. The conditions noted are these: pH 8, 30 °C, SAM fixed at 1 mM, GST-tagged enzyme 2 µg.

Km and kcat data for three molecules are collected here from PMC12904073, “Two Novel S‐methyltransferases Confer Dimethylsulfide Production in Actinomycetota” (Advanced Science, 2025).

`CS` [methanethiol]: the Km (in general, the concentration of substrate that gives half-maximal velocity) with MddM1 (SAM fixed at 1 mM, GST-tagged enzyme 1 µg) amounted to 760 µM.

`C[S+](CC[C@H](N)C(=O)O)C[C@H]1O[C@@H](n2cnc3c(N)ncnc32)[C@H](O)[C@@H]1O` (some centres unmarked) [S-adenosine-methionine]: the Km with MddM1 (MeSH as co-substrate fixed at 1 mM, methyl donor) was 110 ± 50 µM.

B1: TbMddM2 (Thermobispora bispora DSM 43833) (protein)
chain: MSAADVLPVNHHADHPGFSGVIGTVIGLIFLLAGRPTARLAADLAAVGPGDRVADIGCGPGTAVREAARRGAQATGVDPAPVMLRWARMAGRGEAMEWREGTAERVPLPDGWATVWWSLATVHHWKDVEAGLREAYRVLAPGGRLLAMERQIAPGATGQASHGWTRRQADAFADHCRAAGFTDVTVTAHRAGRRDVWVVTATRP
With B1, in “purified protein”, the Km was 20 ± 10 µM; the kcat (usually the number of substrate molecules converted per active site and unit of time at saturation) turned out to be 0.05 ± 0.01 s⁻¹. Besides, the Km in data set [1] came to 220 µM.
